Experimental data from paper PMC8203779, “Distinct mechanisms of the human mitoribosome recycling and antibiotic resistance” (Nature Communications, 2021).

Target: mitoribosomal protein uL12m (39S subunit, L10-L12 stalk) (human (endogenous in HEK293S GnTI), UniProt P52815 37-198)
Test: cryo-EM structure; model PoTC (150 nM 55S mitoribosomes + 50 uM puromycin, 10 min 37 °C) with 15 uM RRFmt (5 min 37 °C), then 5 uM EF-G2mt + 200 uM GMPPCP (5 s, 30 s, 2 min, 37 °C), HEPES polymix buffer pH 7.5; single-particle classes: Class I 55S•RRFmt, Class II 55S•RRFmt•EF-G2mt•GMPPCP, Class III 39S•RRFmt•EF-G2mt•GMPPCP
Settings: both partners purified

binding result: binds
B1: human EF-G2mt (recycling-specific mitochondrial homolog of elongation factor G) (natural protein)
chain: MLTNLRIFAMSHQTIPSVYINNICCYKIRASLKRLKPHVPLGRNCSSLPGLIGNDIKSLHSIINPPIAKIRNIGIMAHIDAGKTTTTERILYYSGYTRSLGDVDDGDTVTDFMAQERERGITIQSAAVTFDWKGYRVNLIDTPGHVDFTLEVERCLRVLDGAVAVFDASAGVEAQTLTVWRQADKHNIPRICFLNKMDKTGASFKYAVESIREKLKAKPLLLQLPIGEAKTFKGVVDVVMKEKLLWNCNSNDGKDFERKPLLEMNDPELLKETTEARNALIEQVADLDDEFADLVLEEFSENFDLLPAEKLQTAIHRVTLAQTAVPVLCGSALKNKGIQPLLDAVTMYLPSPEERNYEFLQWYKDDLCALAFKVLHDKQRGPLVFMRIYSGTIKPQLAIHNINGNCTERISRLLLPFADQHVEIPSLTAGNIALTVGLKHTATGDTIVSSKSSALAAARRAEREGEKKHRQNNEAERLLLAGVEIPEPVFFCTIEPPSLSKQPDLEHALKCLQREDPSLKVRLDPDSGQTVLCGMGELHIEIIHDRIKREYGLETYLGPLQVAYRETILNSVRATDTLDRTLGDKRHLVTVEVEARPIETSSVMPVIEFEYAESINEGLLKVSQEAIENGIHSACLQGPLLGSPIQDVAITLHSLTIHPGTSTTMISACVSRCVQKALKKADKQVLEPLMNLEVTVARDYLSPVLADLAQRRGNIQEIQTRQDNKVVIGFVPLAEIMGYSTVLRTLTSGSATFALELSTYQAMNPQDQNTLLNRRSGLT
notes: mitochondrial elongation factor G2 (EF-G2mt), human, 87 kD; contact residues up to Leu778 are printed; Cloned into pGEX6.1; also called EF-G2mt-GMPPCP; source: Rossetta (pLysS + RARE) cells, purified (GSTrap HP, GST cleaved with 3C protease, HiTrap Q HP)
